In US20100160556A1 (published 2010):

Target: GLP-1 receptor (on a GLP-1 receptor transfected CHO cell line)
Experiment: cell-based or functional assay

B1: CM3 (GLP-1(7-37)-IP2, murine IP2) (peptide)
peptide: HAEGTFTSDVSSYLEGQAAKEFIAWLVKGRGRRDFPEEVAIAEELG
IC50 (GLP-1 bioassay, cAMP increase): 187 µM

B2: CM3-ANA01 (peptide)
peptide: HAEGTFTSDVSSYLEGQAAKEFIAWLVKGRGAADFPEEVAIAEELG
IC50 (GLP-1 bioassay, cAMP increase): 159 µM

B3: PEG-CM3-ANA08 (CM3-ANA08 conjugated to unbranched 40 kDa mPEG maleimido propionamide) (peptide)
peptide: HAEGTFTSDVSSYLEGQAAKEFIAWLVKGRGRRDFPEEVAIAEELGC
modifications: unbranched 40 kDa mPEG maleimido propionamide on the free thiol group of the C-terminal cysteine
ED50 relative to CM3 (GLP-1 bioassay, cAMP increase): ~5 times
